Reference: article doi:10.64898/2025.12.17.694870 (bioRxiv, 2025)
Numbering of substitutions follows the chain as printed. Where no end group is shown, it is not given here.

How the values were obtained:
[1] = biological target: T1, Homer1 EVH1 domain (1-118) S97L (Mus musculus, UniProt Q9Z2Y3 1-118, S97L); assay: NMR titration
T1 sequence (looked up): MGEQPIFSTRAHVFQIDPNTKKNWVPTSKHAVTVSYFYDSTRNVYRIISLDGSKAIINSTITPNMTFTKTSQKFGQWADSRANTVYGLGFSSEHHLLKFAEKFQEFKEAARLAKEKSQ

[2] = biological target: T2, Homer1 EVH1 domain (1-118) M65I (Mus musculus, UniProt Q9Z2Y3 1-118, M65I); assay: NMR titration
T2 sequence (looked up): T1 sequence (looked up) with M65I, L97S

[3] = biological target: T3, wild-type Homer1 EVH1 domain (1-118) (Mus musculus, UniProt Q9Z2Y3 1-118); assay: NMR titration
T3 sequence (looked up): T1 sequence (looked up) with L97S

[4] = biological target: T1, Homer1 EVH1 domain (1-118) S97L; assay: BLI
[5] = biological target: T2, Homer1 EVH1 domain (1-118) M65I; assay: BLI
[6] = biological target: T3, wild-type Homer1 EVH1 domain (1-118); assay: BLI

Measured: binding result

B1: short Shank3 peptide LVPPPEEFANG (peptide)
peptide: LVPPPEEFANG
binds: [1] | [2] | [3]

B2: biotinylated Shank3 peptide ligand LVPPPEEFANG (peptide)
peptide: LVPPPEEFANG
modifications: also: biotinylated, site not given here
binds: [4] | [5] | [6]
